Experimental data as given in paper PMC3447985.

How the values were obtained:
Assay in all cases: SEC
[1] = target: Human apolipoprotein E4 S94C (human) (UniProt P02649)
[2] = target: Human apolipoprotein E4 S290C (human) (UniProt P02649)
[3] = target: Human apolipoprotein E4 W264C (human) (UniProt P02649)

Work on “Human apolipoprotein E4 S94C (from UniProt P02649 19-317) (natural protein)” yielded a stoichiometry N [1] of 4.
“Human apolipoprotein E4 S290C (from UniProt P02649 19-317) (natural protein)” gave a stoichiometry N [2] of 4.
“Human apolipoprotein E4 W264C (from UniProt P02649 19-317) (natural protein)” gave a stoichiometry N [3] of 4.
